Assay results: patent publication US20130184211A1 (NEW YORK UNIVERSITY, published 2013)

Target: T1, 1:1 binary complex of the ectodomains of FGFR1c and Klotho (human; murine, UniProt O35082 35-982)
T1 construct: range 35-982; also called FGFR1c-Klotho complex; binary FGFR1c-Klotho complex; not shown: C-terminal FLAG tag
T1 sequence 1: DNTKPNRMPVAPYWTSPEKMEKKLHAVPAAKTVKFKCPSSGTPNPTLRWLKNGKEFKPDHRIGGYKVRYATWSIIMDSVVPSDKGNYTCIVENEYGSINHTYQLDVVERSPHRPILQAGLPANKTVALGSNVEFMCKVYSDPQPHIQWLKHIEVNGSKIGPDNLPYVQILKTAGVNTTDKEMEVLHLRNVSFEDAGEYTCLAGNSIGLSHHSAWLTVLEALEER
T1 sequence 2: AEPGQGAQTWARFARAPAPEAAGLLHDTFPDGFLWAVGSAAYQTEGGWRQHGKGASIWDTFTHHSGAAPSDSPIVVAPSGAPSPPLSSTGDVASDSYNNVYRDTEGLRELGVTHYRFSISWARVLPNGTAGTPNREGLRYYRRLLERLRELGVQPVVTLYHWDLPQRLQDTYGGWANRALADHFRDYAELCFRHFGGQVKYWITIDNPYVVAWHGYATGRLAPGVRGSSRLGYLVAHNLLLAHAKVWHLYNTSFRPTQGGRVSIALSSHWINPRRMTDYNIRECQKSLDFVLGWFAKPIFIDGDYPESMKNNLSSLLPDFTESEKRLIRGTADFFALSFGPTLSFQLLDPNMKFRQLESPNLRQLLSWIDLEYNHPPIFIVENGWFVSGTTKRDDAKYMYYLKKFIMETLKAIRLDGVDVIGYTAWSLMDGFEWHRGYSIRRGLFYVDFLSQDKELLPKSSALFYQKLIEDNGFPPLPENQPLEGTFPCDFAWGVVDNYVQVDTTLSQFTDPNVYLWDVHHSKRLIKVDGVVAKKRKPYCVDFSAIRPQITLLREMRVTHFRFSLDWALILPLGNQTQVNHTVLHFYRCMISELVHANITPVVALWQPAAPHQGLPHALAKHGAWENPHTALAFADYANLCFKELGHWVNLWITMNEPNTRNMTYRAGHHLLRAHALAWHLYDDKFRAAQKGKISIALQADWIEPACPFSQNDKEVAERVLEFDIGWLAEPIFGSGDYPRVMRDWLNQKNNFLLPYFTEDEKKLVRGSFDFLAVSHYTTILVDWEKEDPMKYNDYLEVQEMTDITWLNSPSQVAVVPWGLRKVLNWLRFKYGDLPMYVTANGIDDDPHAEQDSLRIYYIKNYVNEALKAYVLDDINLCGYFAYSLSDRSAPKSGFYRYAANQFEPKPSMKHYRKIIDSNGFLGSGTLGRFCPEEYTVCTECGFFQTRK
Test: SPR competition; FGF23^28-251 immobilized; reference FGF23^28-251 in solution
Excerpt: To analyze FGF23 binding to the binary FGFR1c-Klotho complex, FGF23²⁸⁻²⁵¹ was coupled to a chip, and increasing concentrations of 1:1 complex of the ectodomains of FGFR1c and Klotho in HBS-EP buffer were passed over the chip. To measure binding of the C-terminal tail of FGF23 to the binary FGFR1c-Klotho complex, FGF23¹⁸⁰⁻²⁵¹ was immobilized on a chip, and increasing concentrations of 1:1 complex of the ectodomains of FGFR1c and Klotho in HBS-EP buffer were passed over the chip. To examine whether the C-terminal tail of FGF23 can compete with full-length FGF23 for binding to the binary FGFR1c-Klotho complex, FGF23²⁸⁻²⁵¹ was immobilized on a chip. Increasing concentrations of FGF23¹⁸⁰⁻²⁵¹ were mixed with a fixed concentration of 1:1 complex of the ectodomains of FGFR1c and Klotho in HBS-EP buffer, and the mixtures were passed over the chip. As a control, competition of FGF23 in solution with immobilized FGF23 for binding to the binary FGFR1c-Klotho complex was studied. Increasing concentrations of FGF23²⁸⁻²⁵¹ were mixed with a fixed concentration of 1:1 complex of the ectodomains of FGFR1c and Klotho in HBS-EP buffer, and the mixtures were passed over the FGF23 chip. […] As a control, competition of FGF23 C-terminal tail peptide in solution with immobilized FGF23 C-terminal tail peptide for binding to the binary FGFR1c-Klotho complex was analyzed. […]

Row | Binder | rightward shift of the dose-response curve compared to full-length FGF23
1 | N-terminally hexahistidine-tagged 72-amino acid C-terminal tail of human FGF23 (S180 to I251), FGF23^180-251 (Expressed in E. coli; also called FGF23 C-terminal tail peptide; C-terminal tail of FGF23; not shown: N-terminal hexahistidine tag (six His)) peptide: SAEDDSERDPLNVLKPRARMTPAPASCSQELPSAEDNSPMASDPLGVVRGGRVNTHAGGTGPEGCRPFAKFI | ~3 fold
2 | SAEDDSERDPLNVLKPRARMTPAPAS (Made by solid phase synthesis (GenScript)) [FGF23 C-terminal region peptide (S180 to S205), FGF23^180-205] | ~6 fold
